Experimental data published in US20250188195A1.

Target: cotinine-conjugated anti-HER2 affibody (ZQAA1-Cot)
Test: ELISA, ZQAA1-Cot (2 ug/mL) captured on coated hHER2-ECD-His, anti-hIgG-Fc-HRP, absorbance at 450 nm

B1: humanized antibody (hz33B2) specifically binding to cotinine (antibody, V domains shown)
VH: QVQLVQSGAEVKKPGASVKVSCKASGYTFTSYWIQWVRQAPGQGLEWMGEIFPGTGTTYYNEKFKGRVTMTIDTSTSTVYMELSSLRSEDTAVYYCARGGYYYDSRAWFAYWGQGTLVTVSS
VL: QAVVTQEPSLTVSPGGTVTLTCRSSTGTVTTSNYANWVQQKPGQAPRGLIGGTNNRAPWTPARFSGSLLGDKAALTLSGAQPEDEAEYYCALWFSNHWVFGGGTKLTVLG
- EC50 (read off the curve): 60 ng/mL
